Target: T1, dCREB2-a (Drosophila melanogaster) (UniProt Q9VWW0)
T1 sequence: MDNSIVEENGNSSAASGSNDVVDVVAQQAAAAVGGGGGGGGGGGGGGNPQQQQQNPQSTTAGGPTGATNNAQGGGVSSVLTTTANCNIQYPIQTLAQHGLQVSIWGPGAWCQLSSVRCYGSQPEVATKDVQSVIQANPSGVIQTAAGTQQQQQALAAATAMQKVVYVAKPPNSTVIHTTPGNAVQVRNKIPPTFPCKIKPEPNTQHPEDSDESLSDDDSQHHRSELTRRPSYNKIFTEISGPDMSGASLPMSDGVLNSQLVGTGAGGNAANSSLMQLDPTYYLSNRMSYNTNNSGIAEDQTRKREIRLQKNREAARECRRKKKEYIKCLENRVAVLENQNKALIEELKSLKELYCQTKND
Test: cell_activity
Settings: F9 cells, with PKA versus PKA alone

Substance: D(-71) CAT reporter CRE fragment
- activity: 5.4 fold
